According to patent US20100260765A1 (AstraZeneca / MedImmune, published 2010):

What was measured:
[1] = target: T1, human KDR (VEGFR2) on cells (human, UniProt P35968 20-1356); test: FACS on HUVEC, hybridoma supernatant 1:50
T1 construct: whole, on cells; also called native KDR on HUVEC; endogenously expressed KDR
Method: HUVECs were seeded at 15,000 cells/well and incubated with 100 μL of sample supernatant (at 1:50 dilution) for one hour at 4° C. The positive control was goat anti-KDR antibody (R&D Systems, Inc.), and negative controls included irrelevant hybridoma supernatants at the same dilution. The cells were then washed and incubated with Cy5-conjugated goat anti-human antibody at 5 μg/mL and 7-Amino-Actinomycin D (7AAD) at 5 μg/mL for 15 minutes at 4° C. Bound KDR was detected using FACS analysis.

[2] = target: T1, human KDR (VEGFR2) on cells; test: cell-based or functional assay
[3] = target: T2, mouse KDR (Flk-1)/Fc (Cat. #443-KD/CF, R&D Systems) (mouse, UniProt P35918 20-762); test: ELISA, plate-coated Flk-1/Fc 500 ng/mL, hybridoma supernatant 1:5
T2 construct: Bought reagent; also called mouse VEGFR2; KDR mouse ortholog; Fc part of the bought chimera not given
T2 sequence (P35918 20-762): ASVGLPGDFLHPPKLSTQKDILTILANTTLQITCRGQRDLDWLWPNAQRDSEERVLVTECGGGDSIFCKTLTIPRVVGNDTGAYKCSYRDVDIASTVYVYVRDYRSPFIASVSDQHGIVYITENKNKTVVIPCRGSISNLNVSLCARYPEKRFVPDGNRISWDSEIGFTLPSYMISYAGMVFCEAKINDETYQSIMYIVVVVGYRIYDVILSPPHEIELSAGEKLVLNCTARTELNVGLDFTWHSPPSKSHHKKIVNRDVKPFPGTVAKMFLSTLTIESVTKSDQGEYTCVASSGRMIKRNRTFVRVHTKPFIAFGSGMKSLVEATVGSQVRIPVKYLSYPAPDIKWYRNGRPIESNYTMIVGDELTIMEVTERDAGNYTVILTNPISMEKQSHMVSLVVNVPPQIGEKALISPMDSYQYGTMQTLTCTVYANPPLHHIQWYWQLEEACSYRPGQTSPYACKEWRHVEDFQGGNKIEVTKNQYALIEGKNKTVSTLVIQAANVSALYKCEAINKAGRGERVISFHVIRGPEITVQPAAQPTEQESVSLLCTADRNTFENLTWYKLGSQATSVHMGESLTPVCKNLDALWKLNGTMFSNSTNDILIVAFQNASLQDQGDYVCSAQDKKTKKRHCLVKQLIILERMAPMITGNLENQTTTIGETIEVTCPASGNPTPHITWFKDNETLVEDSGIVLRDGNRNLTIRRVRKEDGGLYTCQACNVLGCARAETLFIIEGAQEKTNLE
Method: The cross-reactivity of antibodies in the hybridoma supernatant was tested against KDR mouse ortholog (mouse VEGFR2, or Flk-1) and human VEGFR1 (Flt-1). Cross-reactivity was measured using an ELISA based assay.
After washing and blocking the plates, the antibody-containing supernatants were added (at 1:5 dilution) into the coated wells and incubated for one hour at room temperature. The plates were then incubated with mouse anti-human IgG 2, 3 and 4 and subsequently with goat anti-mouse IgG Fc POD, to detect and measure bound antibodies.

[4] = target: T1, human KDR (VEGFR2) on cells; test: cell-based or functional assay; remark: listed apart in the source
[5] = target: T1, human KDR (VEGFR2) on cells; test: cell-based or functional assay; remark: listed apart in the source
[6] = target: T3, soluble KDR (VEGF Receptor 2 D1-7, Cat. #676490, Calbiochem) (human, UniProt P35968 20-764); test: ELISA, plate-coated soluble KDR 250 ng/mL, hybridoma supernatant 1:5
T3 construct: extracellular domain; Bought reagent; also called soluble human KDR; immobilized soluble KDR
T3 sequence (P35968 20-764): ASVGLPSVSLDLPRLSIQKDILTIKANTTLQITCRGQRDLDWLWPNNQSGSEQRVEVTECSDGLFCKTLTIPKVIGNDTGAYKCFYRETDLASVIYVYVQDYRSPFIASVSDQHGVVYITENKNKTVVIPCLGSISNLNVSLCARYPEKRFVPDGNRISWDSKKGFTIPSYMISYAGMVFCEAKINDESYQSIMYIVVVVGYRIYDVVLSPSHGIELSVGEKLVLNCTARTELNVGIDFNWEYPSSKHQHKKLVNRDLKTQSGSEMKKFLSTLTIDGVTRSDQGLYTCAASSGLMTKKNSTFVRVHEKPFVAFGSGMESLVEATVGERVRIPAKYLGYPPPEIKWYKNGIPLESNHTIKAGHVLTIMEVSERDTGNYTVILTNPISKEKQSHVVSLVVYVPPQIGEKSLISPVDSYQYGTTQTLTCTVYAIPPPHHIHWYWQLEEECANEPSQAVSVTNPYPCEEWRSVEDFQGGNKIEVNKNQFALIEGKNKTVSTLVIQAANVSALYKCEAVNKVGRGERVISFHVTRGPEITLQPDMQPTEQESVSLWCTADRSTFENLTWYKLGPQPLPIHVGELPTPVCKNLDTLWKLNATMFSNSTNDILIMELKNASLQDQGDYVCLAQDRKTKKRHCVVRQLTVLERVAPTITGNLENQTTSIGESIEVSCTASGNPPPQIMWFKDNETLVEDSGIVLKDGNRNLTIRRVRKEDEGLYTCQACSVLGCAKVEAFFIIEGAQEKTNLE
Method: To screen by binding to immobilized soluble KDR, plates were coated with KDR (Calbiochem) at 250 ng/mL overnight at 4° C. After blocking and washing the coated plates, the candidate hybridoma supernatants (at 1:5 dilution) were transferred to the plates and incubated for one hour at room temperature. The plates were then washed and incubated with secondary antibody (at 1:4000 dilution) for one hour at room temperature.

T1 sequence (P35968 20-1356): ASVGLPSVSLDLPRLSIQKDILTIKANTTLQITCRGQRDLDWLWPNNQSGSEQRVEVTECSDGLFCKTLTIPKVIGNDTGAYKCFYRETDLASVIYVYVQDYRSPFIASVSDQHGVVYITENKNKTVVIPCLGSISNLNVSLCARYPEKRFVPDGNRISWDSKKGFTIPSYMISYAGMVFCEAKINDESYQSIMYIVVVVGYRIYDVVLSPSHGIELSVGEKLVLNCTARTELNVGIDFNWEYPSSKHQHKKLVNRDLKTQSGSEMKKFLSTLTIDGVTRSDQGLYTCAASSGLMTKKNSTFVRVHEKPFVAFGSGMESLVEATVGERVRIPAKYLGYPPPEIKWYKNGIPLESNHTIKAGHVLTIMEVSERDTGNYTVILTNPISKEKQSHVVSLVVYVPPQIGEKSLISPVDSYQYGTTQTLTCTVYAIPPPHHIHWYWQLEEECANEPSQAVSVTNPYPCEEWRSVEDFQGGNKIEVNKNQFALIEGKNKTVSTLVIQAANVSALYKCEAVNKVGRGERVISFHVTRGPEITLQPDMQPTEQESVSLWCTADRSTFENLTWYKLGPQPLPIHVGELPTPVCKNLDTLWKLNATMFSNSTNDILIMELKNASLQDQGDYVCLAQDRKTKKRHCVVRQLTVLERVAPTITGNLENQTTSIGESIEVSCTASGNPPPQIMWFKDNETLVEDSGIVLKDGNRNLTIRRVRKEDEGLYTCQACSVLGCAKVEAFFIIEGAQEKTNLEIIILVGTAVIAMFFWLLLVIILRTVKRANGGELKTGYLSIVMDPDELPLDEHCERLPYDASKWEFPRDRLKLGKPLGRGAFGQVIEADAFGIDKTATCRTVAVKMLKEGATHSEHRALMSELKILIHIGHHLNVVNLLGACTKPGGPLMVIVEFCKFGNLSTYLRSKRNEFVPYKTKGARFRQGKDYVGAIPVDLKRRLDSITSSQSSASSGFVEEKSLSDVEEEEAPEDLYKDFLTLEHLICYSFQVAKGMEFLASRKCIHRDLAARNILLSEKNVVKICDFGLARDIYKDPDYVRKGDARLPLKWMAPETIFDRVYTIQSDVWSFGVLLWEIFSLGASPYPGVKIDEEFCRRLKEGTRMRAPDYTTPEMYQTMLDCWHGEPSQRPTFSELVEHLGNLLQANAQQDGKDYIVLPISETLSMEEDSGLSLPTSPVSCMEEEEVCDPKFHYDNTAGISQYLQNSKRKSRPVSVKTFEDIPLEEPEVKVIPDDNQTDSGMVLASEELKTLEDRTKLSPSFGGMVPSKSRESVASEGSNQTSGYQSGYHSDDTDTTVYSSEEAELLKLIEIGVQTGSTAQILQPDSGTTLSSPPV

| Binder | FACS Geometric Mean [1] | % Inhibition of VEGF165-mediated pTyr Activity, Average [2] [%] | % Inhibition of VEGF165-mediated pTyr Activity, n = 1 [2] [%] | % Inhibition of VEGF165-mediated pTyr Activity, n = 2 [2] [%] | % Inhibition of VEGF165-mediated pTyr Activity, n = 3 [2] [%] | OD (450 nm) [3] [OD450] | % Inhibition of VEGF-E-mediated pTyr Activity [4] [%] | HUVEC survival (n = 1) 1:10 dilution of supernatant (RLU) [5] [RLU] | HUVEC survival (n = 2) 1:20 dilution of supernatant (RLU) [5] [RLU] | KDR OD(450 nm) [6] [OD450] |
| --- | --- | --- | --- | --- | --- | --- | --- | --- | --- | --- |
| anti-KDR monoclonal antibody 21H9 (antibody, V domains shown, Fully human mAb from XenoMouse (IgG2 or IgG4 strain); hybridoma supernatant) VH: QVPLVESGGGVVQPGRSLRLSCAASGFTFSSYGMHWVRQAPGKGLEWVAVIWYDGSNKYYADSVQGRFTISRDNSKNTLYLQMNSLRAEDTAVYYCARGVTMVRGLIIARYYYGLDVWGQGTTVTVSS VL: DIVMTQTPLSSPVTFGQPASISCRSSQSLVHSDGNTYLSWLQQRPGQPPRLLIYKISNRFFGVPDRFSGSGAGTDFTLKISRVEAEDVGLYYCMQSTQFPLTFGGGTKVEIK | 29 | 70 | 80 | 70 | 61 | 0.139 | 6 | 43800 | 10300 | 1.65 |
| anti-KDR monoclonal antibody 30D7 (antibody, V domains shown, Fully human mAb from XenoMouse (IgG2 or IgG4 strain); hybridoma supernatant) VH: QVPLVESGGGVVQPGRSLRLSCAASGFTFSSYGMHWVRQAPGKGLEWVAVIWYDGSNKYYADSVKGRFTISRDNSKNTLYLQMNSLRAEDTAVYYCARGVTMVRGVIIARYYYGLDVWGQGTTVTVSS VL: DIVMTQTPLSSPVTLGQPASISCRSSQSLVHSDGNTYLSWLQQRPGQPPRLLIYKISNRFFGVPDRFSGSGAGTDFTLKIGRVEAEDVGLYYCMQSTQFPLTFGGGTKVEIK | 31 | 76 | 99 | 71 | 59 |  | 24 | 28300 | 2520 | 3.45 |
| anti-KDR monoclonal antibody 29F7 (antibody, V domains shown, Fully human mAb from XenoMouse (IgG2 or IgG4 strain); hybridoma supernatant) VH: QVQLVQSGAEVKKPGASVKVSCKASGYTFTSYDINWVRQATGQGLEWMGWMNPNSGKTGYAQKFQGRVTMTRSTSISTAYMELSSLRSEDTAVYYCARGGYSNLGWFDPWGQGTLVTVSS VL: DIQMTQSPSSVFASVGDRVTITCRASQGISTWLAWYQQKPGKAPKFLIYAASSLQSGVPSRFSGSGSGTDFTLTISSLQPDDFATYYCQQANNFPFTFGPGTKVDIK | 32 | 78 | 90 | 67 | 77 | 0.093 | 45 | 44100 | 24000 | 1.22 |
| anti-KDR monoclonal antibody 24C9 (antibody, V domains shown, Fully human mAb from XenoMouse (IgG2 or IgG4 strain); hybridoma supernatant) VH: EVQLVESGGGLVKPGGSLRLSCAASGFTFSTYSMNWVRQAPGKGLEWVSFISGRSSYIYYADSVKGRFTISRDNAKNSLYLQMNSLRAEDTAVYYCSKDDWFEELWGQGTLVTVSS VL: DIQMTQSPSSLSASVGDRVTITCRASQGIRNDLGWYQQKPGKAPKRLIYATFSLQSGVPSRFSGSGSGTEFTLTISSLQPEDFATYYCLQHNRYPWTFGQGTKVEIK | 33 | 46 | 55 | 45 | 38 | 0.098 | 51 | 14600 | 9180 | 0.55 |
| anti-KDR monoclonal antibody 29A3 (antibody, V domains shown, Fully human mAb from XenoMouse (IgG2 or IgG4 strain); hybridoma supernatant) VH: QVQLQESGPGLVKPSETLSLTCTVSGGSISSYFWSWIRQPAGKGLEWIGRIYFSGRTNYNPSLKSRVTMSVETSKNQFSLKLNSVTAADTAVYYCARDGGWNYDVAFDYWGQGTLVTVSS VL: QAVLTQPSSLSASPGASASLTCTLRSGINVGTYRIYWYQQKPGSPPQYLLRYKSDSDQLQGSGVPSRFSGSKDASANAGILLISGLQSEDEADYYCMVWHSNTWVFGGGTKLTVL | 30 | 77 | 92 | 66 | 72 |  | 22 | 36400 | 2450 | 0.814 |
| anti-KDR monoclonal antibody 32B2 (antibody, V domains shown, Fully human mAb from XenoMouse (IgG2 or IgG4 strain); hybridoma supernatant) VH: EVQLLESGGGLVQPGGSLRLSCAASGFTFSNYAMSWVRQAPGKGLDWVSAISGRGGSTYYADSVKGRFTISRDNSKNTLFLLMNSLRAEDTAVYYCAKASGDDWGQGTLVTVSS VL: not shown | 26 | 77 | 91 | 75 | 66 |  | 15 | 19300 | 400 | 1.11 |
| anti-KDR monoclonal antibody 29A11 (antibody, V domains shown, Fully human mAb from XenoMouse (IgG2 or IgG4 strain); hybridoma supernatant) VH: EVQLLESGGGLVQPGGSLRLSCAASGFTFSNYAMNWVRQAPGKGLEWVSAISGGGGNTYYADSVKGRFTISRDNSKNTLYLQMNRLRAEDTAVYYCAKASGDDWGQGTLVTVSS VL: not shown | 31 | 78 | 96 | 72 | 66 |  | 15 | 34600 | 27700 | 3.53 |
| anti-KDR monoclonal antibody 30E3 (antibody, V domains shown, Fully human mAb from XenoMouse (IgG2 or IgG4 strain); hybridoma supernatant; also called 30E3.1; 30E3.2) VH: EVQLLESGGGLVQPGGSLRLSCAASGFTFSNYALSWVRQAPGKGLEWVSAISGSGRNTYYADSVKGRFTLSRDNSKNTLFLQMNSLRAEDTAVYYCAKASGDNWGQGTLVTVSS VL: not shown | 36 | 71 | 89 | 67 | 58 |  | 19 | 37500 | 30400 | 4.18 |
| anti-KDR monoclonal antibody 1G6 (antibody, V domains shown, Fully human mAb from XenoMouse (IgG2 or IgG4 strain); tested here as hybridoma supernatant) VH: EVQLLESGGGLVQPGGSLRLSCAASGFTFSSYAMSWVRQAPGKGLEWVSAISGGGGNTYYADSVKGRFTISRDNSKNTLYLQMNSLRAEDTAVYYCSKVATDYWGQGTLVTVSS VL: QPVLTQSSSASASLGSSVKLTCTLSSGHSSYIIAWHQQQPGKAPRYLMKLEGSGSYNKGSGVPDRFSGSSSGADRYLTISNLQFEDEADYYCETWDSYTVVFGGGTKLTVL | 32 | 71 | 89 | 67 | 58 | 0.055 | 24 | 47800 | 10200 | 6 |
